B1: DART-B (bispecific antibody)
chain 1: DIQMTQSPSSLSASVGDRVTITCRASQDISNYLNWYQQKPGKAPKLLIYYTSRLHSGVPSRFSGSGSGTDFTLTISSLQPEDIATYYCQQGNTLPPTFGGGTKLEIKGGGSGGGGEVQLVESGGGLVQPGGSLRLSCAASGFTFSTYAMNWVRQAPGKGLEWVGRIRSKYNNYATYYADSVKDRFTISRDDSKNSLYLQMNSLKTEDTAVYYCVRHGNFGNSYVSWFAYWGQGTLVTVSSGGCGGGEVAALEKEVAALEKEVAALEKEVAALEKGGGDKTHTCPPCPAPEAAGGPSVFLFPPKPKDTLMISRTPEVTCVVVDVSHEDPEVKFNWYVDGVEVHNAKTKPREEQYNSTYRVVSVLTVLHQDWLNGKEYKCKVSNKALPAPIEKTISKAKGQPREPQVYTLPPSREEMTKNQVSLWCLVKGFYPSDIAVEWESNGQPENNYKTTPPVLDSDGSFFLYSKLTVDKSRWQQGNVFSCSVMHEALHNHYTQKSLSLSPGK
chain 2: QAVVTQEPSLTVSPGGTVTLTCRSSTGAVTTSNYANWVQQKPGQAPRGLIGGTNKRAPWTPARFSGSLLGGKAALTITGAQAEDEADYYCALWYSNLWVFGGGTKLTVLGGGGSGGGGQVQLVQSGAEVKKPGASVKVSCKASGYTFTSYWMQWVRQAPGQGLEWMGTIYPGDGDTRYTQKFKGRVTITADKSTSTAYMELSSLRSEDTAVYYCARRGIPRLWYFDVWGQGTTVTVSSGGCGGGKVAALKEKVAALKEKVAALKEKVAALKE
chain 3: not shown
notes: Three-chain Fc diabody; also called B7-H3×CD3 bispecific monovalent Fc diabody
B2: DART-A (bispecific antibody)
chain 1: DIQLTQSPSFLSASVGDRVTITCKASQNVDTNVAWYQQKPGKAPKALIYSASYRYSGVPSRFSGSGSGTDFTLTISSLQPEDFATYYCQQYNNYPFTFGQGTKLEIKGGGSGGGGEVQLVESGGGLVQPGGSLRLSCAASGFTFSTYAMNWVRQAPGKGLEWVGRIRSKYNNYATYYADSVKDRFTISRDDSKNSLYLQMNSLKTEDTAVYYCVRHGNFGNSYVSWFAYWGQGTLVTVSSGGCGGGEVAALEKEVAALEKEVAALEKEVAALEKGGGDKTHTCPPCPAPEAAGGPSVFLFPPKPKDTLMISRTPEVTCVVVDVSHEDPEVKFNWYVDGVEVHNAKTKPREEQYNSTYRVVSVLTVLHQDWLNGKEYKCKVSNKALPAPIEKTISKAKGQPREPQVYTLPPSREEMTKNQVSLWCLVKGFYPSDIAVEWESNGQPENNYKTTPPVLDSDGSFFLYSKLTVDKSRWQQGNVFSCSVMHEALHNHYTQKSLSLSPGK
chain 2: QAVVTQEPSLTVSPGGTVTLTCRSSTGAVTTSNYANWVQQKPGQAPRGLIGGTNKRAPWTPARFSGSLLGGKAALTITGAQAEDEADYYCALWYSNLWVFGGGTKLTVLGGGGSGGGGEVQLVESGGGLVQPGGSLRLSCAASGFTFSSFGMHWVRQAPGKGLEWVAYISSDSSAIYYADTVKGRFTISRDNAKNSLYLQMNSLRDEDTAVYYCGRGRENIYYGSRLDYWGQGTTVTVSSGGCGGGKVAALKEKVAALKEKVAALKEKVAALKE
chain 3: not shown
notes: Three-chain Fc diabody, one B7-H3 site and one CD3 site; chains are disulfide bonded; also called B7-H3×CD3 bispecific monovalent Fc diabody

Key:
human B7-H3 on cells [1] = target: T1, human B7-H3 on cells (human, UniProt Q5ZPR3 29-534); assay: cell-based or functional assay
T1 sequence (looked up): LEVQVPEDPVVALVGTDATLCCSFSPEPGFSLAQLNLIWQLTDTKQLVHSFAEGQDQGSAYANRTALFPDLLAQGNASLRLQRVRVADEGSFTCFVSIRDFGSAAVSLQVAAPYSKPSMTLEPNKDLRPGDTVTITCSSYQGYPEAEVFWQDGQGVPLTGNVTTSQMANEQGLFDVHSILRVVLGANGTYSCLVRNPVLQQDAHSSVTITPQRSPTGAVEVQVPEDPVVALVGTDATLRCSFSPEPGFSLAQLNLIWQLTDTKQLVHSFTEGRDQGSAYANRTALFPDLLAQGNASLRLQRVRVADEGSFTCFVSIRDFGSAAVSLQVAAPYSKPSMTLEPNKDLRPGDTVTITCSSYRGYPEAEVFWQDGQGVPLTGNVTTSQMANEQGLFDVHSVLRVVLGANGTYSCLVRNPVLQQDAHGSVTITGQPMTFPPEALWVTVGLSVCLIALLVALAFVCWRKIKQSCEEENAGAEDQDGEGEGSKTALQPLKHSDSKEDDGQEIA

Cynomolgus B7-H3 = target: T2, Cynomolgus B7-H3 (cynomolgus monkey); assay: SPR (BIAcore)
T2 chain: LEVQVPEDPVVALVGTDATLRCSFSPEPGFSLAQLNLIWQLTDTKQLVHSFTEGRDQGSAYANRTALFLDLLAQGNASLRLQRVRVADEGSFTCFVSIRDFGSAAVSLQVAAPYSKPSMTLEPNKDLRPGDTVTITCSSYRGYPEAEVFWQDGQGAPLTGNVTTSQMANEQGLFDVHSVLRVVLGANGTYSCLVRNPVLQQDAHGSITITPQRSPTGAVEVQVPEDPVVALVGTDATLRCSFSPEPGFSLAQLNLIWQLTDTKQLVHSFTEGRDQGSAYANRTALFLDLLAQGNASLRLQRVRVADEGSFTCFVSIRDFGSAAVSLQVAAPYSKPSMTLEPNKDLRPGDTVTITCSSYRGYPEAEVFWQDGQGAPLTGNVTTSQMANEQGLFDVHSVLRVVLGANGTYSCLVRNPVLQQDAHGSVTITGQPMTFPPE

human B7-H3 on cells [2] = target: T1, human B7-H3 on cells; assay: cell-based or functional assay; remark: listed apart in the source
human B7-H3 on cells [3] = target: T1, human B7-H3 on cells; assay: cell-based or functional assay; remark: listed apart in the source

Binder | potency of redirected cell killing against DART-A (target cell lines including A498, THP-1 and DU145) (human B7-H3 on cells [1]) [fold] | Kd (Cynomolgus B7-H3) [nM] | koff (Cynomolgus B7-H3) [s⁻¹] | kon (Cynomolgus B7-H3) [M⁻¹ s⁻¹] | EC50 of redirected killing, 22Rv1 target cells, human T cells, E:T 5:1 (human B7-H3 on cells [2]) [µg/mL] | EC50 of redirected killing, A375 target cells, human T cells, E:T 5:1 (human B7-H3 on cells [2]) [µg/mL] | EC50 of redirected killing, A498 target cells, human T cells, E:T 5:1 (human B7-H3 on cells [2]) [µg/mL] | EC50 of redirected killing, BxPC-3 target cells, human T cells, E:T 5:1 (human B7-H3 on cells [2]) [µg/mL] | EC50 of redirected killing, DU145 target cells, human T cells, E:T 5:1 (human B7-H3 on cells [2]) [µg/mL] | EC50 of redirected killing, Detroit562 target cells, human T cells, E:T 5:1 (human B7-H3 on cells [2]) [µg/mL] | EC50 of redirected killing, JIMT-1/Luc target cells, human T cells, E:T 5:1 (human B7-H3 on cells [2]) [µg/mL] | EC50 of redirected killing, SKMES-1 target cells, human T cells, E:T 5:1 (human B7-H3 on cells [2]) [µg/mL] | EC50 of redirected killing, U87 target cells, human T cells, E:T 5:1 (human B7-H3 on cells [2]) [µg/mL] | EC50 of redirected killing, A375 target cells, E:T 1:1 (LDH assay) (human B7-H3 on cells [3]) [µg/mL] | EC50 of redirected killing, A375 target cells, E:T 5:1 (LDH assay) (human B7-H3 on cells [3]) [µg/mL] | EC50 of redirected killing, A375 target cells, E:T 10:1 (LDH assay) (human B7-H3 on cells [3]) [µg/mL] | EC50 of redirected killing, A498 target cells, E:T 1:1 (LDH assay) (human B7-H3 on cells [3]) [µg/mL] | EC50 of redirected killing, A498 target cells, E:T 5:1 (LDH assay) (human B7-H3 on cells [3]) [µg/mL] | EC50 of redirected killing, A498 target cells, E:T 10:1 (LDH assay) (human B7-H3 on cells [3]) [µg/mL]
B1 | ~6 |  |  |  |  |  |  |  |  |  |  |  |  |  |  |  |  |  | 
B2 |  | 30.2 | 0.0051 | 170000 | 0.212 | 0.097 | 0.064 | 0.196 | 0.084 | 1.28 | 0.047 | 0.319 | 0.099 | 0.352 | 0.243 | 0.166 | 0.129 | 0.0425 | 0.0272

Reference: patent publication US20190002563A1 (MacroGenics, published 2019)
